Measured values as given in patent US20060110796A1.

Columns and labels:
[1] = molecular target: glycomyoglobin with GalNAc-α-threonine at position 4 (myoglobin 4TAG mutant, C-terminal 6xHis tag) (UniProt P02185); assay: enzyme-linked lectin-binding assay (ELLA); 600 ng myoglobin on plate, biotinylated lectin 10 µg/mL, streptavidin-AP, pNPP, 405 nm; reference is an equivalent concentration of tyrosine-myoglobin
[2] = molecular target: glycomyoglobin with β-GlcNAc-serine at position 4 (Gly4TAG mutant myoglobin, C-terminal His6 tag) (UniProt P02185); assay: ELISA-like lectin binding assay; 200 ng myoglobin immobilized, biotinylated BSII, streptavidin-alkaline phosphatase, pNPP, A405
Sequence of glycomyoglobin with β-GlcNAc-serine at position 4 (Gly4TAG mutant myoglobin, C-terminal His6 tag) (P02185 other isoform, or with tags, fused parts or gaps mutant): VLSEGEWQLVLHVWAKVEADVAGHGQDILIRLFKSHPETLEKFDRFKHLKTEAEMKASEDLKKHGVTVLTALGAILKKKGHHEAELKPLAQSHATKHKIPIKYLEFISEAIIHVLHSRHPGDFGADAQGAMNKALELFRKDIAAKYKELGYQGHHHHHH

Sequence of glycomyoglobin with GalNAc-α-threonine at position 4 (myoglobin 4TAG mutant, C-terminal 6xHis tag) (P02185 other isoform, or with tags, fused parts or gaps mutant): as above
Sequence of Vicia Villosa lectin (VVL), biotinylated conjugate (P56625 whole entry): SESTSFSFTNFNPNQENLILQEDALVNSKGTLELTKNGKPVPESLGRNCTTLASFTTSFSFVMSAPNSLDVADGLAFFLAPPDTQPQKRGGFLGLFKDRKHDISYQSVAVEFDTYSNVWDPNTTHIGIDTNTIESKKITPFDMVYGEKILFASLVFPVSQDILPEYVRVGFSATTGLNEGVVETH

Substance	fold signal increase for glycomyoglobin versus tyrosine-myoglobin [1]	fold signal over wild-type myoglobin [2]
Dolichos Biflorus lectin (DBL), biotinylated conjugate (from UniProt P05045 23-275)	5 fold	
Vicia Villosa lectin (VVL), biotinylated conjugate (from UniProt P56625 1-185)	10 fold	
Bandeiraea simplicifolia II (BSII) lectin, biotinylated		> 200 fold
